Reference: PMC4996947, “Rapid α-oligomer formation mediated by the Aβ C terminus initiates an amyloid assembly pathway” (Nature Communications, 2016)
“And” between values parts separate entries of the source, which are not always exact repeats. Equal entries are not always repeated. Ends that are not written are not given here.

Assays:
[1] = Spontaneous aggregation kinetics by sedimentation-HPLC assay (disappearance of monomer); assay type: physicochemical; conditions: 22 μM start, after 35 days, PBS, 37 °C
Experimental: Disaggregated peptide stock solutions were first checked for approximate concentration. All concentrations, for setting up the reaction and for assaying kinetics time points, were determined from integrated A214 HPLC (Agilent XDB-C18 4.6 × 50 mm column) peaks using standard curves individually constructed for each peptide from standard stock solutions calibrated via the A215 absorption[23][41]. […] Sodium azide was added to 0.05% (w/v) and pH adjusted to 7.4. After filtration through a 0.2 μm filter unit (Anotop 10) to get rid of aggregates, the solution was held at 4 °C while the t=0 concentration was determined (∼30 min). The reaction mixture was moved to 37 °C and kinetics monitored by the sedimentation and ThT assays on reaction aliquots and by CD.
Duplicate time points were removed periodically, centrifuged 30 min at 436,000g followed by HPLC analysis of monomer concentration from the carefully removed supernatant[41].
For sedimentation and ThT kinetics, as well as kinetics underlying the n* and Cr determinations and inhibition kinetics studies, each plotted data point is derived from analysis of 2–3 independent reaction aliquots. Each aggregation study was independently carried out twice, with similar results obtained.

[2] = cited from earlier work
Experimental: Table 1 Amyloid nucleation and stabilization data. | column: Cr (μM) || We also addressed whether the Aβ appendages of these hybrid peptides provide any additional stability to the Q23 amyloid cores, in analogy to the stabilizing effect of HTT^NT on HTT exon1 amyloid. Stabilities were assessed by determining the concentration of monomer present when the amyloid assembly reaction reaches equilibrium (Supplementary Fig. 5)[41]. […] The results (Table 1) indicate some interesting trends.

[3] = Segmental HX-MS of the C-terminal pepsin fragment (35–42/35–40) of mature fibrils; assay type: physicochemical; conditions: mature amyloid fibrils, pepsin cleavage between Leu34 and Met35
Excerpt: According to our hypothesis and designs of the peptide models, we expected the Aβ segments of the hybrid peptides to not be involved in amyloid core formation. […] Since the typical α-helix band in FTIR overlaps the characteristic polyQ amyloid band at ∼1,657 cm^−1 (ref. [23]), it is not expected that we might observe any α-helical structure in these fibrils that might be analogous to the HTT^NT α-helix in HTT exon1 fibrils. To address whether a portion of the Aβ segment might be involved in stable β-structure in the fibrils, we used hydrogen–deuterium exchange evaluated by mass spectrometry (HX-MS). […] The absence of a large amount of β-structure within the Aβ segment of the polyQ-Aβ hybrid fibrils is consistent with the total β-structure content of about 50% seen in the CD spectra of the final amyloid suspensions (Figs 2j, 3h and 4j) of peptides containing about 50% Gln residues. […]
All HX-MS data were analysed using an Agilent 1100 series single quadruple ESI mass spectrometer. Aggregates were washed and incubated in D2O and the exchange reactions analysed after an appropriate exchange time. Global HX was analysed by simultaneous dissolution and MS analysis of the exchange reaction using a T-tube front end to the MS[62]; data were not corrected for back-exchange. […]

Aβ42 aggregates = target: T1, Aβ42 aggregates (Homo sapiens, UniProt P05067); test: Global hydrogen–deuterium exchange mass spectrometry (HX-MS) of aggregates; assay type: physicochemical; conditions: for Global HX incorporation: not corrected for back-exchange
T1 construct: purchased Keck Center (Keck Biotechnology Center at Yale University); obtained pre-purified
T1 sequence (P05067 672-713): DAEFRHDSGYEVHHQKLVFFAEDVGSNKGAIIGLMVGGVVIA
Experimental: All HX-MS data were analysed using an Agilent 1100 series single quadruple ESI mass spectrometer. Aggregates were washed and incubated in D2O and the exchange reactions analysed after an appropriate exchange time. Global HX was analysed by simultaneous dissolution and MS analysis of the exchange reaction using a T-tube front end to the MS[62]; data were not corrected for back-exchange. Segmental exchange was performed as described. Briefly, fibrils were recovered from the exchange reaction by centrifugation (20,800g, 30 min), and in a 4 °C room to 20 μl ice-cold 8 M Gdn.HCl plus 0.1% formic acid was added to the pellets and mixed for 10 s, then 100 μl pepsin agarose (Sigma-Aldrich) in 0.1% cold formic acid was added and mixed for 10 s. The sample was immediately centrifuged to remove the immobilized pepsin (20,800g, 30 s) and the supernatant subjected to 4 °C LC-MS analysis.

In the case of KKKKKKKKKKGGIIGLMVGGVVIA [K10G2Aβ31–42], the “Monomer remaining in the reaction mixture” value [1] is reported as ~13 µM.
In the case of “Aβ40: full-length Aβ peptide ending at residue 40”, the Cr of fibrils [2] is given as 1.06 ± 0.18 µM and the “Exchange of the C-terminal 35–42/35–40 fragment after exposure of fibrils to D2O” value [3] is given as “essentially fully exchanged”.
In the case of “Aβ42: full-length Aβ peptide ending at residue 42”, the Cr of fibrils [2] is given as 0.11 ± 0.01 µM and 0.11 µM, the “Global HX incorporation” value (Aβ42 aggregates; Aβ42 aggregated alone) is given as 14.8±1.2 deuteriums and the “Global HX incorporation” value (Aβ42 aggregates; Aβ42 aggregates grown in the presence of K10G2Aβ31–42) is given as 25.6±1.2 deuteriums. For the same substance, the “Newly unprotected amide hydrogens” value (Aβ42 aggregates; Aβ42 aggregates grown with K10G2Aβ31–42 vs Aβ42 alone) was ~11 and the “Exchange of the C-terminal 35–42/35–40 fragment after exposure of fibrils to D2O” value [3] was “resists exchange”.
Substance “H-KKQQQQQQQQQQQQQQQQQQQQQQQKKAIIGLMVGGVVIA-OH” has a fraction of reaction mixture sedimentable at early time of 15%.
